# This sample holds only a part of the variants without activity.
# B1: TPR 5TU (parent)
# chain: GGAUCUUCUCGAUCUAACAAAAAAGACAAAUCUGCCACAAAGCUUGAGAGCAUCUUCGGAUGCAGAGGCGGCAGCCUUCGGUGGCGCGAUAGCGCCAACGUUCUCAACUAUGACACGCAAAACGCGUGCUCCGUUGAAUGGAGUUUAUCAUG
# Variants of: B1
# Experiment: polymerase ribozyme fitness, log enrichment relative to wild type (log ratio); higher = more active; in vitro selection for triplet polymerase activity
# Outline: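 Input and output libraries were sequenced on Illumina after a single in vitro selection round, run in triplicate on PCR-built, transcribed mutant libraries of each subunit of a heterodimeric triplet polymerase ribozyme. Selection annealed libraries to a biotinylated primer, the partner subunit and triplets, incubated them frozen at −7 °C, then gel-excised extended constructs for streptavidin-bead capture and RT-PCR. Genotypes with ≥10 input reads and ≥1 read per output were kept. Fitness is the logarithm, taken in base 2, of genotype enrichment divided by wild-type enrichment, using inverse-variance-weighted replicate averages.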
row,Variant,polymerase ribozyme fitness (log ratio)
1,C8U U55A,-2.51
2,C8A G84A,-3.28
3,U9C G25C U56A C93U C99G,≤ -4.2
4,C8U A20U G46C G59U A60C C63U G83U C87U A97U U145A,≤ -4.2
5,C8A G48A G92C,≤ -4.2
6,C8U A19C A40G C57U G92U G140A U146A,≤ -4.2
7,C8A U56A A60U C93A U109G A113U U139G U145C A147G,≤ -4.2
8,C8A C18G A40G C54G A73C C87A U90A C114U,≤ -4.2
9,C8U C75A G86U A91U A122G G136A,≤ -4.2
10,C8G C85U G88U U145C,≤ -4.2
11,C8U A20G U33A U56A C95A C131A,≤ -4.2
12,C8G C27G C36G A39C C85A,≤ -4.2
13,C8G G94A C103U G128C U134A,≤ -4.2
14,C8G C14U A29U G50U C54U C75G A119U,≤ -4.2
15,U9A C10U C75A C87A A110G A119C,≤ -4.2
16,C8G A12G G42C U82A C95U C108U G136A G143A A150U,≤ -4.2
17,U9C A12G A21U G42U C51G U53A C96A,≤ -4.2
18,U9A G50A G94U,≤ -4.2
19,C8G C35G C105G U144A,≤ -4.2
20,C8U C57U A60C A97U A115U,≤ -4.2
21,C8U A19C A40G C96U A142U,≤ -4.2

row,Variant,polymerase ribozyme fitness (log ratio)
1,C8G U13C A16G A52G G83A U101G G126A,≤ -4.2
2,U9A A16G C54U C75U C76A A120U,≤ -4.2
3,C8G G25C U33C C93U G124C,≤ -4.2
4,C8A C14U C54A C99A,≤ -4.2
5,C8G C35U C85G G88U U134A,≤ -4.2
6,C8A G88A,≤ -4.2
7,C8A G92C,-3.68
8,C8U A20G,-3.94
9,C8G C57U G59A C69G G88U C96G A120U,≤ -4.2
10,U9A A19C A41C C57U C96U,≤ -4.2
11,C8A U55A G88A G133C G136A U139A G143C,≤ -4.2
12,C8U G88U C93U,-4.14
13,C8A C27A C57G G92A,≤ -4.2
14,C8G A17C C18G A41C A52U G83A G140U,≤ -4.2
15,C8A U56A A66C G94A A98U,≤ -4.2
16,U9C C10U A16U A19C C85G G94C C105U A106U,≤ -4.2
17,C8U U15G A17G A30G U44G C76A C87A,≤ -4.2
18,U9C A47U,-3.94
19,U9C G50C C75G C85G C125A,≤ -4.2
20,U9A A23U U77A,≤ -4.2
21,C8U G83C C125U,≤ -4.2

row,Variant,polymerase ribozyme fitness (log ratio)
1,C8G U61G G81A C87U G92C A121G C132A U144A G152A,≤ -4.2
2,C8G A17G G25A C54G G71C C87U U90A C96U C132U,≤ -4.2
3,C8U C10G A29U C85U C116U,≤ -4.2
4,C8A C93A,≤ -4.2
5,C8A C93U,-3.42
6,C8G C116G,-3.15
7,U9C U33G A52C C93G A110U,≤ -4.2
8,U9C A22C C54U G71U G84A C95A A98U C108A C114U A115C,≤ -4.2
9,C8A G42A G59U G67C,≤ -4.2
10,U9C A23U G58U A73U C79A G83C G86A A107G G141C,≤ -4.2
11,C8U C38U G48A A60C C72G C96A C99U C114G U139G U148G,≤ -4.2
12,U9C C38U C51U A52G G74C C85G G143C U145A,≤ -4.2
13,C8A U56A C79U G84C G112A C131U U146A,≤ -4.2
14,C8G U15G A21G G83U A91G C105U U144C U148A,≤ -4.2
15,C8G U13C A17U A29U C38U U44A G84U C87G G92A G140A,≤ -4.2
16,U9A A39C U53G G92A G112C A113G C149G,≤ -4.2
17,C8U U15A G58U C69A C85A G124C,-3.61
18,U9A U31G G58U A73U C123U U135A,≤ -4.2
19,C8U C123G,-3.42
20,C8U C27U A115G,-4.06
21,C8U G81C,-3.94

row,Variant,polymerase ribozyme fitness (log ratio)
1,U9C A22U U53G C79U,≤ -4.2
2,C8U A106G,-2.98
3,C8U A22U U56A A73G A121G C123U,-4.16
4,C8U A41C G46C G71A G83U C116G,≤ -4.2
5,C8G C18U C38U G50C C54U G65C C87U C99G,≤ -4.2
6,C8U U15G A49G G59A A60G G70A G86C C93U A106G U135C,≤ -4.2
7,C8G G11U U31A U90G A137C A150U,-4.16
8,C8U C54U U56C C85A G92C,≤ -4.2
9,C8G C54G C85U A121U C131A G136U A137G,≤ -4.2
10,C8U C85G,-3.44
11,U9C A16U A19U U31A C35U A49U,≤ -4.2
12,U9A A21U U55A C85G G112C U145A,≤ -4.2
13,C8A C27U U56C U111C A138G,≤ -4.2
14,U9G A12C A16U U31A G62A G71A G80C C87U C108U,≤ -4.2
15,C8G A16U A20U C79U C85U A115C,≤ -4.2
16,C8U G42C C51U U61G C95A C125G U127G A137U C149G,≤ -4.2
17,U9A G141A,-2.94
18,U9A G141C,-3.23
19,U9A A20U A28U C79A C87U U139A,≤ -4.2
20,C8U C43U C85U G100A A142U,≤ -4.2

# Source: the RNAGym collection of RNA variant scans (doi:10.1073/pnas.2313332121)
